Broadly, the Km is the concentration of substrate that gives half-maximal velocity. As a reminder, the kcat is the maximal rate divided by the concentration of active sites. The kcat/Km is the second-order rate constant that governs catalysis at low substrate concentration. As usually defined, the stoichiometry N is the number of molecules, sites or subunits per partner or assembly.

This note sets out measurements from publication PMC11694665, “Open and closed structures of L-arginine oxidase by cryo-electron microscopy and X-ray crystallography” (Journal of Biochemistry, 2024).

In one data set the test system is T1, N=C(N)NCCC[C@H](N)C(=O)O.
T1 construct: full length, recombinant in E. coli BL21(DE3) from pET-15b; homooctamer (D4), one FAD per monomer; 4632 residues modelled in octamer (579 per chain)
Kind of data set: peroxidase-coupled colourimetric assay (4-aminoantipyrine/TOOS), non-linear regression. As to conditions: 100 mM Tris-HCl pH 7.0, 37 °C, substrate 0-2.5 mM. The format is biochemical, Pseudomonas putida. From the text:
(§1) peroxidase-coupled colourimetric assay (4-aminoantipyrine/TOOS), non-linear regression on PT-AROD (L-arginine oxidase from Pseudomonas sp. TPU 7192)

The next data set has as its system T2, NCCCC[C@H](N)C(=O)O.
T2 construct: full length, recombinant in E. coli BL21(DE3) from pET-15b; homooctamer (D4), one FAD per monomer; 4632 residues modelled in octamer (579 per chain)
Described as above. The format is biochemical, Pseudomonas putida. As to conditions: 100 mM Tris-HCl pH 7.0, 37 °C, substrate 0-10 mM.
Description: as §1

The target in data set [1] is L-arginine oxidase from Pseudomonas sp. TPU 7192 (Pseudomonas sp. TPU 7192). Kind of data set: cryo-EM structure; single-particle analysis, 2.5 mg/ml protein in 20 mM HEPES (pH 8.0), 50 mM NaCl, with bound FAD; D4 symmetry; octamer.
The target is the same in data set [2]. Put plainly: mass photometry; 0.1 mg/ml in SEC buffer (20 mM HEPES pH 8.0, 50 mM NaCl), on a glass coverslip, 60 s, three repeats; molecular weight in solution.
Data set [3] shares this target. Put plainly: crystal structure; crystals grown at 20°C from 10 mg/ml protein, 20% w/v PEG 3350, 0.2 M potassium citrate tribasic (pH 8.3); four molecules in the asymmetric unit, octamer made by a symmetry mate.
Data set [4] deals with T3, PT-AROD (L-arginine oxidase from Pseudomonas sp. TPU 7192) (Pseudomonas putida, UniProt A0A177SH44).
T3 construct: gene AYO28_23740; full length, recombinant in E. coli BL21(DE3) from pET-15b; homooctamer (D4), one FAD per monomer; 4632 residues modelled in octamer (579 per chain)
T3 sequence (A0A177SH44 1-589): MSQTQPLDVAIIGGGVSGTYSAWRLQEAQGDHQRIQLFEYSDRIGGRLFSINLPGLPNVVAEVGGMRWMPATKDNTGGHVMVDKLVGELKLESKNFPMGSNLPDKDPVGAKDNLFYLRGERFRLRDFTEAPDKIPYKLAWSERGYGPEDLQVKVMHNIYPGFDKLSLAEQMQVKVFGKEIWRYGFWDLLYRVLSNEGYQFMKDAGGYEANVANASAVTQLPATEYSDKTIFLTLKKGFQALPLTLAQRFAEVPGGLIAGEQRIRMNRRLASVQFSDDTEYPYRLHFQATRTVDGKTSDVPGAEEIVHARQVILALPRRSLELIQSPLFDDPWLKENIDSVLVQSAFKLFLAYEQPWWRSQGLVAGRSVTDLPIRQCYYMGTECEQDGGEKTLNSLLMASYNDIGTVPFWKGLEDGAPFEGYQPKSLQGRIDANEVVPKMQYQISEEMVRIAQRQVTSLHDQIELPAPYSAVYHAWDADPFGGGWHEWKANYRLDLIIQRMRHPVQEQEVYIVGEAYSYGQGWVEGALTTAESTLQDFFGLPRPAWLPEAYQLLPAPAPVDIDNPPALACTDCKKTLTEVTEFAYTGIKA
Kind of data set: cryo-EM ([…] Å) and X-ray crystallography ([…] Å). The format is binding. As to conditions: one FAD per monomer; copurified, 0.2 μM FAD in purification buffers.

Substrate in data set [5]: N=C(N)NCCC[C@H](N)C(=O)O
Put plainly: peroxidase-coupled colourimetric assay (4-aminoantipyrine/TOOS), non-linear regression. The format is biochemical, Pseudomonas putida. As to conditions: 100 mM Tris-HCl pH 7.0, 37 °C, substrate 0-2.5 mM.
Description: as §1

Substrate in data set [6]: NCCCC[C@H](N)C(=O)O
The description is as above. The format is biochemical, Pseudomonas putida. As to conditions: 100 mM Tris-HCl pH 7.0, 37 °C, substrate 0-10 mM.
Description: as §1

As for “PT-AROD (L-arginine oxidase from Pseudomonas sp. TPU 7192) (Pseudomonas putida; Q343E)”, in the data set on N=C(N)NCCC[C@H](N)C(=O)O, the Km worked out at 1700 µM, the kcat is 10.4 s⁻¹ and the kcat/Km is 6100 M⁻¹ s⁻¹. In the data set on NCCCC[C@H](N)C(=O)O, the Km was 6.9 mM, the kcat turned out to be 0.5 s⁻¹ and the kcat/Km amounted to 72 M⁻¹ s⁻¹.
Consider “L-arginine oxidase from Pseudomonas sp. TPU 7192 (enzyme)”, for which the stoichiometry N in data set [1], in data set [2] and in data set [3] was 8 throughout.
“PT-AROD (L-arginine oxidase from Pseudomonas sp. TPU 7192) (Pseudomonas putida; E486A)”: in the data set on N=C(N)NCCC[C@H](N)C(=O)O, the Km was found to be 190 µM, the kcat is 3.5 s⁻¹ and the kcat/Km is 18000 M⁻¹ s⁻¹. Also, in the data set on NCCCC[C@H](N)C(=O)O, the Km worked out at 1.2 mM, the kcat worked out at 1.1 s⁻¹ and the kcat/Km was determined as 920 M⁻¹ s⁻¹.
Consider `Cc1cc2nc3c(=O)[nH]c(=O)nc-3n(C[C@H](O)[C@H](O)[C@H](O)COP(=O)(O)OP(=O)(O)OC[C@H]3O[C@@H](n4cnc5c(N)ncnc54)[C@H](O)[C@@H]3O)c2cc1C` [FAD], for which the “cryo-EM (2.3 Å) and X-ray crystallography (3.4 Å)” value in data set [4] is “We obtained a cryo-EM map of PT-AROD in complex with FAD”.

B1: PT-AROD (L-arginine oxidase from Pseudomonas sp. TPU 7192) (Pseudomonas putida) (protein)
chain: MSQTQPLDVAIIGGGVSGTYSAWRLQEAQGDHQRIQLFEYSDRIGGRLFSINLPGLPNVVAEVGGMRWMPATKDNTGGHVMVDKLVGELKLESKNFPMGSNLPDKDPVGAKDNLFYLRGERFRLRDFTEAPDKIPYKLAWSERGYGPEDLQVKVMHNIYPGFDKLSLAEQMQVKVFGKEIWRYGFWDLLYRVLSNEGYQFMKDAGGYEANVANASAVTQLPATEYSDKTIFLTLKKGFQALPLTLAQRFAEVPGGLIAGEQRIRMNRRLASVQFSDDTEYPYRLHFQATRTVDGKTSDVPGAEEIVHARQVILALPRRSLELIQSPLFDDPWLKENIDSVLVQSAFKLFLAYEQPWWRSQGLVAGRSVTDLPIRQCYYMGTECEQDGGEKTLNSLLMASYNDIGTVPFWKGLEDGAPFEGYQPKSLQGRIDANEVVPKMQYQISEEMVRIAQRQVTSLHDQIELPAPYSAVYHAWDADPFGGGWHEWKANYRLDLIIQRMRHPVQEQEVYIVGEAYSYGQGWVEGALTTAESTLQDFFGLPRPAWLPEAYQLLPAPAPVDIDNPPALACTDCKKTLTEVTEFAYTGIKA
notes: full length, recombinant in E. coli BL21(DE3) from pET-15b; homooctamer (D4), one FAD per monomer; 4632 residues modelled in octamer (579 per chain)
As to B1, in data set [5], the Km is 480 µM, the catalytic constant (kcat) is 6.2 s⁻¹ and the kcat/Km was found to be 13000 M⁻¹ s⁻¹. Besides, in data set [6], the Km came out at 20 mM, the kcat turned out to be 2.7 s⁻¹ and the kcat/Km amounted to 140 M⁻¹ s⁻¹.
